Here are results for one molecule from patent publication US20260265358A1 (BYOMASS, published 2026).

Values joined by “and” are separate entries in the source; they are usually repeats but may differ in a detail not shown here. Equal entries are not always repeated.

The target of experiment [1] is T1, biotinylated Human Activin A (human, UniProt P03970 309-424 (pig entry), biotinylated (EZ-Link Sulfo-NHS-Biotinylation Kit)).
T1 sequence: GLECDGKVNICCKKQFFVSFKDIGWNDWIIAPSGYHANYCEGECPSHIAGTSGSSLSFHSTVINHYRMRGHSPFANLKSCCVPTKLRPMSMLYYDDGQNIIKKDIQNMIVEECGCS
Kind of experiment: SPR (Biacore 8K), antigen captured, Fab analyte; second, unlabelled row under Clone B (Rmax 38.1). How it is done: (§1) Kinetic analysis was conducted at 25° C. in HBS-EP+ running buffer (10 mM HEPES pH 7.4, 150 mM NaCl, 3 mM EDTA, 0.05% Surfactant P20) using a Biacore 8K optical biosensor (Cytiva, Marlborough, MA). The sample compartment was maintained at 10° C. for the duration of the experiment. The Biacore 8K can analyze up to 8 separate interactions in a single cycle.
Each experiment cycle began with an injection (300 s at 2 μL/min) overflow cells 1 and 2 of a 1:100 solution of biotin CAPture reagent (Cytiva) in running buffer. This was followed by an injection (45 s at 10.0 μL/min) of biotinylated human ACTIVIN A (5 nM) overflow cell 2. Upon capture of ACTIVIN A to the sensor surface, a single concentration of Fab ranging from 0.111-81.0 nM was injected (300 s at 30 μL/min) overflow cells 1 and 2. The dissociation of the antibodies were monitored for 3420 s. […] Several blank buffer samples were injected (300 s at 30 μL/min) overflow cells 1 and 2 throughout the duration of the experiment and used for reference surface subtraction—each were monitored for the same amount of dissociation time (3420 s) and regenerated under the same conditions as those for the Fab sample injections.
(§2) The anti-Activin antibodies identified in Example 1 were characterized. First, binding kinetics of the anti-Activin antibodies was assessed with a Surface Plasmon Resonance assay (Biacore).

Experiment [2] has as its target T2, Human Activin A Fc (human, UniProt P03970 309-424 (pig entry)).
T2 construct: also called human Activin A-Fc fusion; human Activin A-Fc antigen; not shown: Fc part
T2 sequence: T1 sequence
Kind of experiment: Octet BLI, Fab, monovalent. Background: Biolayer interferometry detects binding as a change in optical thickness at a sensor tip.

Experiment [3] deals with T1, biotinylated Human Activin A. Kind of experiment: SPR (Biacore 8K), antigen captured, Fab analyte. As for the experimental part: as §1
Each experiment cycle began with an injection (300 s at 2 μL/min) overflow cells 1 and 2 of a 1:100 solution of biotin CAPture reagent (Cytiva) in running buffer. This was followed by an injection (45 s at 10.0 μL/min) of biotinylated human ACTIVIN A (5 nM) overflow cell 2. Upon capture of ACTIVIN A to the sensor surface, a single concentration of Fab ranging from 0.111-81.0 nM was injected (300 s at 30 μL/min) overflow cells 1 and 2. The dissociation of the antibodies were monitored for 3420 s. Finally, an injection (120 s at 10 μL/min) of regeneration solution (6 M Guanidine-HCl in 0.25 M NaOH) overflow cells 1 and 2 prepared the sensor surface for another cycle. Several blank buffer samples were injected (300 s at 30 μL/min) overflow cells 1 and 2 throughout the duration of the experiment and used for reference surface subtraction—each were monitored for the same amount of dissociation time (3420 s) and regenerated under the same conditions as those for the Fab sample injections.
as §2
In general terms: Surface plasmon resonance follows binding to a sensor surface in real time, without labels.

B1: Fab of anti-Activin A antibody Clone B (Fab, V domains shown)
VH: QVQLVQSGAEVKKPGASVKVSCKASGYTFIGYDMHWVRQAPGQGLEWMGVINPSSGGTNYAQKFQGRVTMTRDTSISTAYMELSRLRSDDTAVYYCARARDIAALGLGAFDYWGQGTLVTVSS
VL: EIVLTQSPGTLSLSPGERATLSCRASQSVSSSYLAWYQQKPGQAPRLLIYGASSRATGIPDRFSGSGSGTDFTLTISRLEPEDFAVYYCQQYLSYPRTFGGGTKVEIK
notes: Fab format; only VH and VL are tied to the clone; also called Fab of Clone B
B1: the Kd in experiment [1] was 6.17 pM. The molecule also returned a Kd in experiment [2] of 309 pM. Further, in experiment [3], the Kd stood at 9.81 pM; the koff was 2.27e-05 s⁻¹ and 1.58e-05 s⁻¹; the kon is 2.31e+06 M⁻¹ s⁻¹ and 2.56e+06 M⁻¹ s⁻¹.

Usually Kd stands for the free concentration of one partner at which half of the binding sites on the other are occupied at equilibrium, for simple one-to-one binding. A low value points to a tighter complex. By koff is commonly meant a measure of how fast the partners let go of each other. One may read the kon as the rate constant with which the complex forms. Low readings indicate slow association, high ones fast association.
